Numbering of substitutions follows the chain as printed.

The values that follow come from paper PMC3280250, “Functional Redundancy of Two Pax-Like Proteins in Transcriptional Activation of Cyst Wall Protein Genes in Giardia lamblia”.

To fix the notation:
B1: cwp1-45/-1 (dsDNA)
DNA 1: GTTTACAACTCTCAGATCAAGAAACACAGAAATAAAATATCAGGG
DNA 2: CCCTGATATTTTATTTCTGTGTTTCTTGATCTGAGAGTTGTAAAC
B2: cwp3-30/+10 (dsDNA)
DNA 1: GTCTTTCCCAAAAAATAAGTTACTACTGATATGTTTTCTC
DNA 2: GAGAAAACATATCAGTAGTAACTTATTTTTTGGGAAAGAC
B3: ran-51/-20 (dsDNA)
DNA 1: TAAAATAAATTAAATCGAAATTAAAACTTTAA
DNA 2: TTAAAGTTTTAATTTCGATTTAATTTATTTTA
B4: cwp2-30/+8 (dsDNA)
DNA 1: CAGCAGCTCAACAGTGGCTGGGAAAATAAAATGATCGC
DNA 2: GCGATCATTTTATTTTCCCAGCCACTGTTGAGCTGCTG
B5: ran-30/-1 (dsDNA)
DNA 1: TAAAACTTTAACCCAGGAACCGAGAGTAGC
DNA 2: GCTACTCTCGGTTCCTGGGTTAAAGTTTTA
B6: poly(A) with TC insertion (dsDNA)
DNA 1: AAAAAAAAAAATCAAAAAAAAAA
DNA 2: TTTTTTTTTTGATTTTTTTTTTT
B7: cwp1-90/-46 (dsDNA)
DNA 1: CTGGCTAACAGTCTACAGTCTACAATTTACAGTATACAATCTACA
DNA 2: TGTAGATTGTATACTGTAAATTGTAGACTGTAGACTGTTAGCCAG
B8: cwp2-60/-31 (dsDNA)
DNA 1: TAGACTGATGCTGTAGAGGTCAACAGATAA
DNA 2: TTATCTGTTGACCTCTACAGCATCAGTCTA
B9: poly(A) with TTT insertion (dsDNA)
DNA 1: AAAAAAAAAATTTAAAAAAAAAA
DNA 2: TTTTTTTTTTAAATTTTTTTTTT
B10: poly(A) (dsDNA)
DNA 1: AAAAAAAAAAAAAAAAAAAAAAA
DNA 2: TTTTTTTTTTTTTTTTTTTTTTT
B11: ran-81/-52 (dsDNA)
DNA 1: CAGAAAAAGTTGTCAAGGAGGTGATAGCCG
DNA 2: CGGCTATCACCTCCTTGACAACTTTTTCTG
B12: poly(A) with T insertion (dsDNA)
DNA 1: AAAAAAAAAAATAAAAAAAAAAA
DNA 2: TTTTTTTTTTTATTTTTTTTTTT
B13: cwp1-90/-69 (dsDNA)
DNA 1: CTGGCTAACAGTCTACAGTCTA
DNA 2: TAGACTGTAGACTGTTAGCCAG
B14: myb2-60/-31 (dsDNA)
DNA 1: TGGCTATGTATTTTTTCTTCTTCTACAGCT
DNA 2: AGCTGTAGAAGAAGAAAAAATACATAGCCA
B15: poly(A) with TT insertion (dsDNA)
DNA 1: AAAAAAAAAAATTAAAAAAAAAA
DNA 2: TTTTTTTTTTAATTTTTTTTTTT
B16: cwp1-45/-1m5 (dsDNA)
DNA 1: B1 DNA 1 with C25G, A26G, C27G
DNA 2: B1 DNA 2 with G19C, T20C, G21C
B17: cwp1-45/-1m11 (dsDNA)
DNA 1: B1 DNA 1 with T33A, T38A, T40A
DNA 2: B1 DNA 2 with A6T, A8T, A13T
B18: cwp1-45/-1m9 (dsDNA)
DNA 1: B1 DNA 1 with T40C, C41G, A42G
DNA 2: B1 DNA 2 with T4C, G5C, A6G
B19: cwp1-45/-1m4 (dsDNA)
DNA 1: GTTTACAACTCTCAGATCGGCGGGCACAGAAATAAAATATCAGGG
DNA 2: CCCTGATATTTTATTTCTGTGCCCGCCGATCTGAGAGTTGTAAAC

One data set deals with T1, Pax2m3 (Giardia lamblia, UniProt A8B733 1-171, del172-302).
T1 sequence: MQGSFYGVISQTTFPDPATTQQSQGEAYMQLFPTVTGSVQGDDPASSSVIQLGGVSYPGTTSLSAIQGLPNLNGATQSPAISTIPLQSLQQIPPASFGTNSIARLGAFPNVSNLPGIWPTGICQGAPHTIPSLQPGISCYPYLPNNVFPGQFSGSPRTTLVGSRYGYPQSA
Put plainly: EMSA; EMSA: 0.02 pmol 5'-32P probe, 5 ng protein, 20 ul, 0.5 ug poly(dI-dC), 15 min at room temperature, 6% acrylamide gel; buffer, salt and pH only by reference [31]. Conditions: protein: recombinant; tags: C-terminal V5-His (pET101/D-TOPO); label: 5'-32P.
For the molecule B1, the binding result is “no binding”.

Consider B2, for which the binding result is listed as “no binding”. With B3, the binding result is listed as “no binding”. Same read-out and setting: then B4, with “no binding”.

Another data set deals with T2, Pax2 (Giardia lamblia, UniProt A8B733 1-302).
T2 sequence: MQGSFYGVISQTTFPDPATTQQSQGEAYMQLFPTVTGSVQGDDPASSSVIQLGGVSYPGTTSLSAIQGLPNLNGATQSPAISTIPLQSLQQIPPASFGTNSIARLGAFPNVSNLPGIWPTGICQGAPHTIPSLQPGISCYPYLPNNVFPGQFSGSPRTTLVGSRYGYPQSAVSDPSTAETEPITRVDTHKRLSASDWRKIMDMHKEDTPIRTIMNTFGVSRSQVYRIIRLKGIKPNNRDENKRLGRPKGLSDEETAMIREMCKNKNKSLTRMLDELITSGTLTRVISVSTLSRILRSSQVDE
The description is as above. The conditions noted are these: protein: recombinant; tags: C-terminal V5-His (pET101/D-TOPO).
GTTTACAACTCTCAGATCAAGAAACACAGAAATAAAATATCAGGG (ssDNA) [cwp1-45/-1 single strand 1]: the binding result is “no binding”.

B5: the binding result is “no binding”.

The data set is the same for the next values; noted with them: protein: recombinant; tags: C-terminal V5-His (pET101/D-TOPO); label: 5'-32P.
Regarding B6, the binding result is “binds”. For the molecule B7, the binding result is on record as “binds”.

On to B3, for which the binding result is “binds”. Still for that read-out and setting: the entry for B8 is “no binding”; for B9 it is “binds”; for B10 it is “binds”. Same read-out and setting: then B11, with “no binding”.

Take B12: the binding result is reported as “binds”.

For the molecule B13, the binding result is “no binding”. On the same count and under the same terms, the entry for B14 is “no binding”. On the same count and under the same terms, the entry for B15 is “binds”.

The next data set has as its target T2, Pax2. As to the kind of experiment: EMSA; unchanged; EMSA: 0.02 pmol 5'-32P probe, 5 ng protein, 20 ul, 0.5 ug poly(dI-dC), 15 min at room temperature, 6% acrylamide gel; buffer, salt and pH only by reference [31]. Conditions: protein: recombinant; tags: C-terminal V5-His (pET101/D-TOPO); label: 5'-32P.
Regarding B16, the binding result is given as “binds”. On to B17, for which the binding result is given as “binds”. Still for that read-out and setting: the entry for B18 is “binds”. Same read-out and setting: then B19, with “binds”.

For the next data set, the target named is T2, Pax2. As to the kind of experiment: EMSA; strong binding; EMSA: 0.02 pmol 5'-32P probe, 5 ng protein, 20 ul, 0.5 ug poly(dI-dC), 15 min at room temperature, 6% acrylamide gel; buffer, salt and pH only by reference [31]. The conditions noted are these: protein: recombinant; tags: C-terminal V5-His (pET101/D-TOPO); label: 5'-32P.
As for B2, the binding result is “binds”.

The next data set addresses T2, Pax2. Put plainly: EMSA; self-competition and anti-V5 supershift assay confirm specificity; EMSA: 0.02 pmol 5'-32P probe, 5 ng protein, 20 ul, 0.5 ug poly(dI-dC), 15 min at room temperature, 6% acrylamide gel; buffer, salt and pH only by reference [31]. Conditions: protein: recombinant; tags: C-terminal V5-His (pET101/D-TOPO); label: 5'-32P.
As for B1, the binding result is given as “binds”.
